± gives the uncertainty stated by the source.
B1: POU domain, class 2, transcription factor 1, residues 285 to 354; numbered along this chain, P14859 (parent)
chain: LEELEQFAKTFKQRRIKLGFTQGDVGLAMGKLYGNDFSQTTISRFEALNLSFKNMCKLKPLLEKWLNDAE
B2: E3 ubiquitin-protein ligase NEDD4, residues 836 to 881; numbered along this chain, P46934 (parent)
chain: EIEQGFLPKGWEVRHAPNGRPFFIDHNTKTTTWEDPRLKIPAHLRG

Variants of: B1
Assay: abundance fitness (aPCA) (normalised: wild type 0, dead -1); higher = more abundant; growth selection in yeast, the domain comes from the species named
Conditions: Homo sapiens

YEELEQFAKTFKQRRIKLGFTQGDVGLAMGKLYGNDFSQTTISRFEALNLSFKNMCKLKPLLEKWLNDAE [L1Y] and REELEQFAKTFKQRRIKLGFTQGDVGLAMGKLYGNDFSQTTISRFEALNLSFKNMCKLKPLLEKWLNDAE [L1R] are within error of each other in abundance fitness: 0.13 ± 0.15 for the first, 0.142 ± 0.12 for the second.

MEELEQFAKTFKQRRIKLGFTQGDVGLAMGKLYGNDFSQTTISRFEALNLSFKNMCKLKPLLEKWLNDAE [L1M] and IEELEQFAKTFKQRRIKLGFTQGDVGLAMGKLYGNDFSQTTISRFEALNLSFKNMCKLKPLLEKWLNDAE [L1I] are within error of each other in abundance fitness: 0.073 ± 0.06 for the first, -0.003 ± 0.17 for the second.

Variants of: B2
Assay: as above
Conditions: Homo sapiens

A42Q and A42H are within error of each other in abundance fitness: 0.02 ± 0.046 for the first, -0.086 ± 0.11 for the second.

A42F and A42L are within error of each other in abundance fitness: -0.223 ± 0.11 for the first, -0.147 ± 0.042 for the second.

Going from A42I to A42S, the abundance fitness rises from -0.398 ± 0.1 to -0.092 ± 0.057.

Compared with A42Y, A42K is higher in abundance fitness: -0.252 ± 0.085 for the first, -0.092 ± 0.052 for the second.

A42M and A42P are within error of each other in abundance fitness: -0.181 ± 0.096 for the first, -0.075 ± 0.074 for the second.

Going from A42N to A42W, the abundance fitness falls from -0.015 ± 0.043 to -0.316 ± 0.13.

A42D and A42V are within error of each other in abundance fitness: -0.111 ± 0.04 for the first, -0.128 ± 0.035 for the second.

First: A42E
Second: A42C
The abundance fitness of the first is higher: 0.027 ± 0.058 for the first, -0.135 ± 0.047 for the second.

First: A42T
Second: A42G
The abundance fitness of the first is lower: -0.22 ± 0.08 for the first, -0.013 ± 0.04 for the second.

A42R and P41S are within error of each other in abundance fitness: -0.273 ± 0.074 for the first, -0.139 ± 0.064 for the second.

Going from P41K to P41Q, the abundance fitness falls from -0.08 ± 0.066 to -0.32 ± 0.087.

Compared with P41R, P41M is lower in abundance fitness: -0.117 ± 0.041 for the first, -0.353 ± 0.062 for the second.

Going from P41H to P41A, the abundance fitness falls from 0.051 ± 0.088 to -0.078 ± 0.033.

Going from P41W to P41D, the abundance fitness rises from -0.49 ± 0.084 to -0.16 ± 0.065.

Compared with P41V, P41L is lower in abundance fitness: -0.141 ± 0.042 for the first, -0.469 ± 0.05 for the second.

First: P41T
Second: P41N
The abundance fitness of the first is lower: -0.158 ± 0.078 for the first, 0.005 ± 0.049 for the second.

Going from P41I to P41E, the abundance fitness falls from 0.029 ± 0.082 to -0.167 ± 0.069.

P41G and P41Y are within error of each other in abundance fitness: -0.423 ± 0.047 for the first, -0.607 ± 0.14 for the second.

Going from P41F to H43I, the abundance fitness rises from -0.57 ± 0.15 to -0.156 ± 0.04.

Going from H43V to H43F, the abundance fitness falls from -0.052 ± 0.047 to -0.232 ± 0.055.
